Assay results taken from the supplement of paper PMC10126150.
± gives the standard deviation of the averaged measurements.

Test system: ATP
Assay: switch fluorescence ratio, 500 uM ATP over buffer (Cy3 cluster intensity, sum of 5 cycles each) (fold (ratio)); higher = stronger signal-on switching upon ATP binding; sequences stand for … in TCGTCGGCAGCGTCAGATGTGTATAAGAGACAGTTTTTTTTTTTTTTTTTTTTTTTTT…TC
Conditions: aptamer strand: ATP DNA aptamer (quencher-CACCTGGGGGAGTATTGCGGAGGAAGG + anchor), 100 nM annealed; ATP concentration: 500 uM
Summary of the method: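 Exposure to 500 uM ATP lasted 15 min at 22 °C before imaging, and a selection-buffer image was taken beforehand, for Cy3-labelled switching-strand clusters on a modified Illumina MiSeq flow-cell annealed to 100 nM quencher-labelled ATP aptamer. Five buffer/ATP cycles were run with NaOH stripping and re-annealing between them. The fluorescence ratio per cluster is summed target-cycle over summed buffer-cycle Cy3 intensity, averaged per switch-domain sequence. Clusters outside 100-1000 RFU were excluded.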

Sequence	switch fluorescence ratio
AGGCTATATT	0.975 ± 0.01
AGGCTTAAAT	0.989 ± 0.025
AGGCTTATCG	1.02 ± 0.024
AGGCTTGATG	0.972 ± 0.033
AGGGAAAGCG	0.996 ± 0.044
AGGGAAAGGT	1.06 ± 0.05
AGGGAAATTT	0.99 ± 0.014
AGGGAACCGC	1.016 ± 0.0062
AGGGAACGAT	0.9693 ± 0.0022
AGGGAACTGT	0.97 ± 0.056
AGGGAAGCTT	0.972 ± 0.035
AGGGAATAGA	0.989 ± 0.0094
AGGGAATAGG	1.01 ± 0.041
AGGGAATATT	1.01 ± 0.027
AGGGACATGC	1.0581 ± 0.00016
AGGGACGAAT	1.25 ± 0.092
AGGGACGGAG	1.01 ± 0.034
AGGGACTGGT	1.01 ± 0.036
AGGGAGAAAA	0.974 ± 0.039
AGGGAGAGCG	0.991 ± 0.071
AGGGAGAGTC	1.036 ± 0.0025
AGGGAGATAG	0.986 ± 0.016
AGGGAGCAGA	0.9948 ± 0.0059
AGGGAGCGAA	1.003 ± 0.0097
AGGGAGCGGC	1.11 ± 0.035

Sequence	switch fluorescence ratio
AGGGAGGGCT	1.02 ± 0.02
AGGGAGGTGG	1.02 ± 0.026
AGGGAGTTTG	0.983 ± 0.021
AGGGATACCT	1.04 ± 0.018
AGGGATCGG	1 ± 0.05
AGGGATCGGG	1.002 ± 0.01
AGGGATCTTT	0.963 ± 0.038
AGGGATTATT	1.02 ± 0.016
AGGGCACAGT	0.995 ± 0.016
AGGGCAGCGT	1.004 ± 0.0041
AGGGCAGGTA	1 ± 0.015
AGGGCCGAT	0.955 ± 0.046
AGGGCCGGGC	0.962 ± 0.044
AGGGCCGGTA	1.03 ± 0.026
AGGGCGCCCG	0.9884 ± 0.0023
AGGGCGGAGT	0.994 ± 0.022
AGGGCTATGT	0.9804 ± 0.005
AGGGCTCGGG	1.012 ± 0.0075
AGGGCTGCAT	0.9874 ± 0.0035
AGGGCTGCCT	1.05 ± 0.096
AGGGCTGGGT	1 ± 0.033
AGGGCTTAGT	0.995 ± 0.022
AGGGCTTGAA	0.991 ± 0.018
AGGGCTTGTG	0.987 ± 0.012
AGGGCTTTTA	1 ± 0.013

Sequence	switch fluorescence ratio
AGGGGAAGAG	0.994 ± 0.07
AGGGGAAGGT	0.984 ± 0.021
AGGGGAATAG	1.01 ± 0.016
AGGGGAATAT	1.03 ± 0.017
AGGGGAATTT	0.992 ± 0.03
AGGGGACTTC	1.04 ± 0.015
AGGGGAGGGA	1 ± 0.027
AGGGGATTGC	0.988 ± 0.019
AGGGGCACTC	0.992 ± 0.028
AGGGGCAGCT	0.977 ± 0.024
AGGGGCATTC	1.03 ± 0.064
AGGGGCCATT	1.009 ± 0.0098
AGGGGCGAGC	0.9616 ± 0.005
AGGGGCGGTT	0.978 ± 0.02
AGGGGGAAGA	1 ± 0.019
AGGGGGAGGC	1.01 ± 0.076
AGGGGGCATT	0.98 ± 0.011
AGGGGGCGAT	1.01 ± 0.039
AGGGGGCGTT	1.02 ± 0.042
AGGGGGCTGC	0.995 ± 0.023
AGGGGGGATA	1.02 ± 0.074
AGGGGGGCAA	1.03 ± 0.13
AGGGGGGCAC	0.984 ± 0.025
AGGGGGGCGG	0.992 ± 0.039
AGGGGGGGC	0.991 ± 0.015

Sequence	switch fluorescence ratio
AGGGGGGGGA	1.01 ± 0.05
AGGGGGGTGG	0.994 ± 0.052
AGGGGGGTGT	1.03 ± 0.028
AGGGGGGTT	1.01 ± 0.06
AGGGGGTAAA	0.975 ± 0.021
AGGGGGTACG	1.01 ± 0.035
AGGGGGTAGC	0.992 ± 0.047
AGGGGGTCGG	1.01 ± 0.03
AGGGGGTGGC	0.986 ± 0.048
AGGGGTATAG	0.995 ± 0.068
AGGGGTATGT	0.989 ± 0.023
AGGGGTCCTT	0.997 ± 0.026
AGGGGTCGGC	0.986 ± 0.016
AGGGGTGCAG	0.995 ± 0.01
AGGGGTGCTG	0.975 ± 0.039
AGGGGTGGAA	0.975 ± 0.022
AGGGGTGTGG	1.01 ± 0.017
AGGGGTTAAC	1.04 ± 0.042
AGGGGTTCGG	0.992 ± 0.026
AGGGGTTTAT	0.988 ± 0.021
AGGGGTTTCG	0.994 ± 0.025
AGGGTAATTT	1.043 ± 0.0063
AGGGTACTGC	1.02 ± 0.039
AGGGTAGAGC	1.09 ± 0.15
AGGGTAGATC	1.03 ± 0.018

Sequence	switch fluorescence ratio
AGGGTAGCTT	0.999 ± 0.031
AGGGTAGGGA	0.9917 ± 0.004
AGGGTAGGGT	1.01 ± 0.033
AGGGTAGTCC	0.986 ± 0.03
AGGGTATCAG	1.01 ± 0.039
AGGGTATTGT	1.02 ± 0.075
AGGGTCACTC	0.9857 ± 0.0043
AGGGTCAGGA	0.996 ± 0.021
AGGGTCGCCT	1 ± 0.04
AGGGTCGCGT	0.989 ± 0.034
AGGGTCGGCT	0.993 ± 0.02
AGGGTCGGGC	1.027 ± 0.0061
AGGGTCGGTG	0.98 ± 0.027
AGGGTCTACG	0.997 ± 0.044
AGGGTCTAGA	0.978 ± 0.023
AGGGTCTCGT	1.009 ± 0.0025
AGGGTCTTAG	1.02 ± 0.049
AGGGTGATAC	1.61 ± 0.62
AGGGTGGAAG	0.993 ± 0.038
AGGGTGGGTG	1.01 ± 0.024
AGGGTGTAGA	1.016 ± 0.0045
AGGGTGTCCA	0.973 ± 0.028
AGGGTGTCCG	1.09 ± 0.054
AGGGTGTGGC	1.0304 ± 0.00027
AGGGTTAGCT	0.991 ± 0.02

Sequence	switch fluorescence ratio
AGGGTTAGGA	1.02 ± 0.033
AGGGTTAGTC	1.03 ± 0.058
AGGGTTATGC	0.984 ± 0.031
AGGGTTGAGA	0.985 ± 0.033
AGGGTTGCTG	1.05 ± 0.074
AGGGTTGGAA	0.967 ± 0.011
AGGGTTGGAC	0.9774 ± 0.0057
AGGGTTGGG	1.03 ± 0.029
AGGGTTGGGA	0.9962 ± 0.0068
AGGGTTGGTG	1.04 ± 0.077
AGGGTTGTGC	1.03 ± 0.049
AGGGTTTCAG	0.98 ± 0.026
AGGGTTTTAC	1.017 ± 0.0013
AGGGTTTTGA	0.996 ± 0.054
AGGGTTTTTG	0.994 ± 0.016
AGGTAATCTT	0.979 ± 0.016
AGGTACGCTC	0.99314 ± 0.00048
AGGTACGGCC	1.03 ± 0.033
AGGTAGCGGC	0.9911 ± 0.0095
AGGTAGGCGC	0.98 ± 0.041
AGGTAGGGGG	0.993 ± 0.019
AGGTATCCAC	1.03 ± 0.035
AGGTATGCAG	0.9983 ± 0.0044
AGGTATGGTC	0.995 ± 0.031
AGGTATTTTT	1.009 ± 0.0042

Sequence	switch fluorescence ratio
AGGTCACGGC	1 ± 0.034
AGGTCAGAGA	1 ± 0.028
AGGTCATCGA	1.004 ± 0.0064
AGGTCCCTGT	1.01 ± 0.042
AGGTCCGGAA	1.14 ± 0.017
AGGTCGGGTA	0.979 ± 0.038
AGGTCGTGTT	0.992 ± 0.01
AGGTCTAATG	1.01 ± 0.03
AGGTCTGAAA	1.04 ± 0.042
AGGTGAAGGT	1.01 ± 0.0035
AGGTGAGAAT	1.16 ± 0.035
AGGTGATACG	1.06 ± 0.054
AGGTGCAATT	1.47 ± 0.54
AGGTGCCAG	0.96208 ± 0.00094
AGGTGGGCGC	0.94 ± 0.07
AGGTGGGGAC	1.01 ± 0.014
AGGTGGGGTC	0.984 ± 0.016
AGGTGGTTG	0.998 ± 0.028
AGGTGTAAGG	1.01 ± 0.051
AGGTGTTAAA	0.9941 ± 0.0033
AGGTGTTATG	1.03 ± 0.051
AGGTGTTGCG	1.016 ± 0.0056
AGGTTAATAG	0.996 ± 0.012
AGGTTAATCT	1.01 ± 0.018
AGGTTACTCC	1.07 ± 0.032

Sequence	switch fluorescence ratio
AGGTTAGTTT	0.985 ± 0.018
AGGTTCAAAT	0.996 ± 0.044
AGGTTCAACG	1.01 ± 0.028
AGGTTCACTA	1.01 ± 0.06
AGGTTCGATC	1.02 ± 0.043
AGGTTGCAGC	0.992 ± 0.032
AGGTTGCAGT	1.01 ± 0.077
AGGTTGCGGG	1 ± 0.014
AGGTTGGACT	0.99145 ± 0.00056
AGGTTGGCTT	0.96006 ± 0.0007
AGGTTGTACT	0.968 ± 0.016
AGGTTGTGGC	0.992 ± 0.033
AGGTTGTGTC	0.979 ± 0.047
AGGTTGTTGG	0.966 ± 0.016
AGGTTTAAAC	1.06 ± 0.063
AGGTTTAGTC	0.9945 ± 0.0026
AGGTTTATAT	0.999 ± 0.016
AGGTTTGGGC	0.997 ± 0.061
AGGTTTTATA	0.9919 ± 0.0094
AGGTTTTGAT	1.01 ± 0.019
AGGTTTTGTT	0.964 ± 0.017
AGGTTTTTCG	1.03 ± 0.03
AGTAAAAGCG	1.04 ± 0.017
AGTAAATTTG	0.9918 ± 0.0076
AGTAACATAT	0.993 ± 0.012
